± gives the standard deviation of the averaged measurements.
Assay: total protein half-life in vivo (active degradation + dilution); higher = more stable protein
[1] = E. coli NCM3722 delta-clpP delta-lon delta-hslV, growth: N-lim chemostat, doubling time 6 h
[2] = E. coli NCM3722 delta-clpP, growth: N-lim chemostat, doubling time 6 h
[3] = E. coli NCM3722 delta-hslV, growth: N-lim chemostat, doubling time 6 h
[4] = E. coli NCM3722 delta-lon, growth: N-lim chemostat, doubling time 6 h
[5] = E. coli NCM3722 delta-smpB, growth: N-lim chemostat, doubling time 6 h
[6] = wild type E. coli NCM3722, growth: C-lim chemostat, doubling time 6 h
[7] = wild type E. coli NCM3722, growth: C-lim chemostat, doubling time 12 h
[8] = wild type E. coli NCM3722, growth: N-lim chemostat, doubling time 6 h
[9] = wild type E. coli NCM3722, growth: N-lim chemostat, doubling time 12 h
[10] = wild type E. coli NCM3722, growth: P-lim chemostat, doubling time 6 h
[11] = wild type E. coli NCM3722, growth: P-lim chemostat, doubling time 12 h
[12] = wild type E. coli NCM3722, growth: C-lim chemostat, doubling time 3 h

## MSYTLPSLPYAYDALEPHFDKQTMEIHHTKHHQTYVNNANAALESLPEFANLPVEELITKLDQLPADKKTVLRNNAGGHANHSLFWKGLKKGTTLQGDLKAAIERDFGSVDNFKAEFEKAAASRFGSGWAWLVLKGDKLAVVSTANQDSPLMGEAISGASGFPIMGLDVWEHAYYLKFQNRRPDYIKEFWNVVNWDEAAARFAAKK
[1]
  total protein half-life in vivo: 6.4 ± 0.78 h
[2]
  total protein half-life in vivo: 5.61 ± 0.3 h
[3]
  total protein half-life in vivo: 5.5 ± 0.16 h
[4]
  total protein half-life in vivo: 7.05 ± 1.2 h
[5]
  total protein half-life in vivo: 4.96 ± 1.2 h
[6]
  total protein half-life in vivo: 5.11 ± 0.91 h
[7]
  total protein half-life in vivo: 11.3 ± 1.7 h
[8]
  total protein half-life in vivo: 4.87 ± 1.1 h
[9]
  total protein half-life in vivo: 9.5 ± 0.12 h
[10]
  total protein half-life in vivo: 5.31 ± 0.55 h
[11]
  total protein half-life in vivo: 11.3 ± 0.15 h

## MTAFSTLNVLPPAQLTNLNELGYLTMTPVQAAALPAILAGKDVRVQAKTGSGKTAAFGLGLLQQIDASLFQTQALVLCPTRELADQVAGELRRLARFLPNTKILTLCGGQPFGMQRDSLQHAPHIIVATPGRLLDHLQKGTVSLDALNTLVMDEADRMLDMGFSDAIDDVIRFAPASRQTLLFSATWPEAIAAISGRVQRDPLAIEIDSTDALPPIEQQFYETSSKGKIPLLQRLLSLHQPSSCVVFCNTKKDCQAVCDALNEVGQSALSLHGDLEQRDRDQTLVRFANGSARVLVATDVAARGLDIKSLELVVNFELAWDPEVHVHRIGRTARAGNSGLAISFCAPEEAQRANIISDMLQIKLNWQTPPANSSIATLEAEMATLCIDGGKKAKMRPGDVLGALTGDIGLDGADIGKIAVHPAHVYVAVRQAVAHKAWKQLQGGKIKGKTCRVRLLK
[1]
  total protein half-life in vivo: 5.81 ± 1.4 h
[2]
  total protein half-life in vivo: 2.58 h
[6]
  total protein half-life in vivo: 3.78 h
[7]
  total protein half-life in vivo: 8.81 ± 4.4 h
[10]
  total protein half-life in vivo: 2.59 h

## MTALALFDLLKPNYALATQVEFTDPEIVAEYITYPSPNGHGEVRGYLVKPAKMSGKTPAVVVVHENRGLNPYIEDVARRVAKAGYIALAPDGLSSVGGYPGNDDKGRELQQQVDPTN [Q7DFU6]
[1]
  total protein half-life in vivo: 2.25 h

## MTALNKKWLSGLVAGALMAVSVGTLAAEQKTLHIYNWSDYIAPDTVANFEKETGIKVVYDVFDSNEVLEGKLMAGSTGFDLVVPSASFLERQLTAGVFQPLDKSKLPEWKNLDPELLKLVAKHDPDNKFAMPYMWATTGIGYNVDKVKAVLGENAPVDSWDLILKPENLEKLKSCGVSFLDAPEEVFATVLNYLGKDPNSTKADDYTGPATDLLLKLRPNIRYFHSSQYINDLANGDICVAIGWAGDVWQASNRAKEAKNGVNVSFSIPKEGAMAFFDVFAMPADAKNKDEAYQFLNYLLRPDVVAHISDHVFYANANKAATPLVSAEVRENPGIYPPADVRAKLFTLKVQDPKIDRVRTRAWTKVKSGK
[1]
  total protein half-life in vivo: 4.64 ± 0.23 h
[2]
  total protein half-life in vivo: 6.13 ± 0.89 h
[3]
  total protein half-life in vivo: 6.35 ± 0.38 h
[4]
  total protein half-life in vivo: 7 ± 1.2 h
[5]
  total protein half-life in vivo: 5.81 ± 0.13 h
[12]
  total protein half-life in vivo: 2.94 ± 0.29 h
[6]
  total protein half-life in vivo: 6.34 ± 0.41 h
[7]
  total protein half-life in vivo: 13 ± 0.15 h
[8]
  total protein half-life in vivo: 6.215 ± 0.018 h
[9]
  total protein half-life in vivo: 12.89 ± 0.11 h
[10]
  total protein half-life in vivo: 6.46 ± 0.65 h
[11]
  total protein half-life in vivo: 13.7 ± 1.1 h

## MTAPSQVLKIRRPDDWHLHLRDGDMLKTVVPYTSEIYGRAIVMPNLAPPVTTVEAAVAYRQRILDAVPAGHDFTPLMTCYLTDSLDPNELERGFNEGVFTAAKLYPANATTNSSHGVTSIDAIMPVLERMEKIGMPLLVHGEVTHADIDIFDREARFIESVMEPLRQRLTALKVVFEHITTKDAADYVRDGNERLAATITPQHLMFNRNHMLVGGVRPHLYCLPILKRNIHQQALRELVASGFNRVFLGTDSAPHARHRKESSCGCAGCFNAPTALGSYATVFEEMNALQHFEAFCSVNGPQFYGLPVNDTFIELVREEQQVAESIALTDDTLVPFLAGETVRWSVKQ
[1]
  total protein half-life in vivo: 5.58 ± 0.26 h
[2]
  total protein half-life in vivo: 5.17 ± 0.099 h
[3]
  total protein half-life in vivo: 5.194 ± 0.04 h
[4]
  total protein half-life in vivo: 5.46 ± 0.25 h
[5]
  total protein half-life in vivo: 4.78 ± 0.2 h
[12]
  total protein half-life in vivo: 2.85 ± 0.047 h
[6]
  total protein half-life in vivo: 5.64 ± 0.76 h
[7]
  total protein half-life in vivo: 8.19 ± 2.8 h
[8]
  total protein half-life in vivo: 5.06 ± 0.61 h
[9]
  total protein half-life in vivo: 9.47 ± 0.78 h
[10]
  total protein half-life in vivo: 6.06 ± 0.17 h
[11]
  total protein half-life in vivo: 13.6 ± 0.86 h

## MTARYIAIDWGSTNLRAWLYQGDHCLESRQSEAGVTRLNGKSPAAVLAEVTTDWREEKTPVVMAGMVGSNVGWKVAPYLSVPACFSSIGEQLTSVGDNIWIIPGLCVSHDDNHNVMRGEETQLIGARALAPSSLYVMPGTHCKWVQADSQQINDFRTVMTGELHHLLLNHSLIGAGLPPQENSADAFTAGLERGLNTPAILPQLFEVRASHVLGTLPREQVSEFLSGLLIGAEVASMRDYVAHQHAITLVAGTSLTARYQQAFQAMGCDVTAVAGDTAFQAGIRSIAHAVAN
[12]
  total protein half-life in vivo: 3.12 ± 0.4 h
[10]
  total protein half-life in vivo: 4.75 h
[11]
  total protein half-life in vivo: 7.85 h

## MTDDFAPDGQLAKAIPGFKPREPQRQMAVAVTQAIEKGQPLVVEAGTGTGKTYAYLAPALRAKKKVIISTGSKALQDQLYSRDLPTVSKALKYTGNVALLKGRSNYLCLERLEQQALAGGDLPVQILSDVILLRSWSNQTVDGDISTCVSVAEDSQAWPLVTSTNDNCLGSDCPMYKDCFVVKARKKAMDADVVVVNHHLFLADMVVKESGFGELIPEADVMIFDEAHQLPDIASQYFGQSLSSRQLLDLAKDITIAYRTELKDTQQLQKCADRLAQSAQDFRLQLGEPGYRGNLRELLANPQIQRAFLLLDDTLELCYDVAKLSLGRSALLDAAFERATLYRTRLKRLKEINQPGYSYWYECTSRHFTLALTPLSVADKFKELMAQKPGSWIFTSATLSVNDDLHHFTSRLGIEQAESLLLPSPFDYSRQALLCVLRNLPQTNQPGSARQLAAMLRPIIEANNGRCFMLCTSHAMMRDLAEQFRATMTLPVLLQGETSKGQLLQQFVSAGNALLVATSSFWEGVDVRGDTLSLVIIDKLPFTSPDDPLLKARMEDCRLRGGDPFDEVQLPDAVITLKQGVGRLIRDADDRGVLVICDNRLVMRPYGATFLASLPPAPRTRDIARAVRFLAIPSSR
[1]
  total protein half-life in vivo: 5.98 ± 0.95 h
[12]
  total protein half-life in vivo: 3.37 h

## MTDHTMKKNPVSIPHTVWYADDIRRGEREAADVLGLTLYELMLRAGEAAFQVCRSAYPDARHWLVLCGHGNNGGDGYVVARLAKAVGIEVTLLAQESDKPLPEEAALAREAWLNAGGEIHASNIVWPESVDLIVDALLGTGLRQAPRESISQLIDHANSHPAPIVAVDIPSGLLAETGATPGAVINADHTITFIALKPGLLTGKARDVTGQLHFDSLGLDSWLAGQETKIQRFSAEQLSHWLKPRRPTSHKGDHGRLVIIGGDHGTAGAIRMTGEAALRAGAGLVRVLTRSENIAPLLTARPELMVHELTMDSLTESLEWADVVVIGPGLGQQEWGKKALQKVENFRKPMLWDADALNLLAINPDKRHNRVITPHPGEAARLLGCSVAEIESDRLHCAKRLVQRYGGVAVLKGAGTVVAAHPDALGIIDAGNAGMASGGMGDVLSGIIGALLGQKLSPYDAACAGCVAHGAAADVLAARFGTRGMLATDLFSTLQRIVNPEVTDKNHDESSNSAP
[1]
  total protein half-life in vivo: 5.24 ± 0.42 h
[2]
  total protein half-life in vivo: 4.62 ± 0.52 h
[3]
  total protein half-life in vivo: 4.91 ± 0.3 h
[4]
  total protein half-life in vivo: 5.56 ± 0.66 h
[5]
  total protein half-life in vivo: 4.42 ± 0.3 h
[12]
  total protein half-life in vivo: 3.2 ± 0.32 h
[6]
  total protein half-life in vivo: 6.53 ± 1.6 h
[7]
  total protein half-life in vivo: 10.1 ± 3.4 h
[8]
  total protein half-life in vivo: 4.25 ± 0.34 h
[9]
  total protein half-life in vivo: 8.83 ± 1.5 h
[10]
  total protein half-life in vivo: 5.62 ± 0.14 h
[11]
  total protein half-life in vivo: 11.3 ± 0.24 h

## MTDKLTSLRQYTTVVADTGDIAAMKLYQPQDATTNPSLILNAAQIPEYRKLIDDAVAWAKQQSNDRAQQIVDATDKLAVNIGLEILKLVPGRISTEVDARLSYDTEASIAKAKRLIKLYNDAGISNDRILIKLASTWQGIRAAEQLEKEGINCNLTLLFSFAQARACAEAGVFLISPFVGRILDWYKANTDKKEYAPAEDPGVVSVSEIYQYYKEHGYETVVMGASFRNIGEILELAGCDRLTIAPALLKELAESEGAIERKLSYTGEVKARPARITESEFLWQHNQDPMAVDKLAEGIRKFAIDQEKLEKMIGDLL [P0A870]
[1]
  total protein half-life in vivo: 5.35 ± 0.57 h
[2]
  total protein half-life in vivo: 5.12 ± 0.34 h
[3]
  total protein half-life in vivo: 5.35 ± 0.39 h
[4]
  total protein half-life in vivo: 5.6 ± 0.23 h
[5]
  total protein half-life in vivo: 5.04 ± 0.11 h
[12]
  total protein half-life in vivo: 3.448 ± 0.0017 h
[6]
  total protein half-life in vivo: 5.81 ± 0.19 h
[7]
  total protein half-life in vivo: 11.1 ± 1.2 h
[8]
  total protein half-life in vivo: 5.14 ± 0.23 h
[9]
  total protein half-life in vivo: 9.23 ± 0.13 h
[10]
  total protein half-life in vivo: 6.18 ± 0.083 h
[11]
  total protein half-life in vivo: 13.7 ± 0.78 h

## MTDLPDSTRWQLWIVAFGFFMQSLDTTIVNTALPSMAQSLGESPLHMHMVIVSYVLTVAVMLPASGWLADKVGVRNIFFTAIVLFTLGSLFCALSGTLNELLLARALQGVGGAMMVPVGRLTVMKIVPREQYMAAMTFVTLPGQVGPLLGPALGGLLVEYASWHWIFLINIPVGIIGAIATLLLMPNYTMQTRRFDLSGFLLLAVGMAVLTLALDGSKGTGLSPLTIAGLVAVGVVALVLYLLHARNNNRALFSLKLFRTRTFSLGLAGSFAGRIGSGMLPFMTPVFLQIGLGFSPFHAGLMMIPMVLGSMGMKRIVVQVVNRFGYRRVLVATTLGLSLVTLLFMTTALLGWYYVLPFVLFLQGMVNSTRFSSMNTLTLKDLPDNLASSGNSLLSMIMQLSMSIGVTIAGLLLGLFGSQHVSVDSGTTQTVFMYTWLSMALIIALPAFIFARVPNDTHQNVAISRRKRSAQ
[11]
  total protein half-life in vivo: 15.7 h

## MTDNNTALKKAGLKVTLPRLKILEVLQEPDNHHVSAEDLYKRLIDMGEEIGLATVYRVLNQFDDAGIVTRHNFEGGKSVFELTQQHHHDHLICLDCGKVIEFSDDSIEARQREIAAKHGIRLTNHSLYLYGHCAEGDCREDEHAHEGK [P0A9A9]
[1]
  total protein half-life in vivo: 6.49 ± 0.92 h
[2]
  total protein half-life in vivo: 5.31 ± 0.6 h
[3]
  total protein half-life in vivo: 4.58 ± 1.7 h
[4]
  total protein half-life in vivo: 6.38 ± 0.37 h
[5]
  total protein half-life in vivo: 3.6 ± 0.55 h
[12]
  total protein half-life in vivo: 2.35 ± 0.2 h
[6]
  total protein half-life in vivo: 4.31 ± 0.14 h
[7]
  total protein half-life in vivo: 8.38 ± 1.9 h
[8]
  total protein half-life in vivo: 4.58 ± 0.81 h
[9]
  total protein half-life in vivo: 11.3 ± 3.6 h
[10]
  total protein half-life in vivo: 5.27 ± 0.16 h
[11]
  total protein half-life in vivo: 11.5 ± 1.6 h

Reference: the supplement of paper PMC11246515
